Assay results as given in patent publication US20100278838A1, “EPHA2 MONOCLONAL ANTIBODIES AND METHODS OF USE THEREOF” (MEDIMMUNE, LLC, priority 2002, published 2010).

What was measured:
MCF-7^EphA2 cells = experiment: Soft agar colonization of MCF-7^EphA2 cells; format: cell-based, human; details: EA2 10 μg/ml, tamoxifen 1 μM
Description: FIGS. 11A-11B: EphA2 overexpression decreases tamoxifen sensitivity. (A) 1×10^5 MCF-7 or MCF-7^EphA2 cells were suspended in soft agar in the presence of 1 μM tamoxifen (TAM) and or 1 μM 17β-estradiol and colony formation was evaluated microscopically after 14 days. (B) MCF-7 (circles) or MCF-7^EphA2 cells (squares) were implanted into the mammary fatpad (n=15 mice per group) in the presence of supplemental estrogen. Tamoxifen treatment was initiated 17 days post-implantation. Tumor volume of tamoxifen treated (black circles and squares) and saline treated (white circles and squares) animals was measured at the indicated time.
FIGS. 13A-13C: EphA2 agonistic antibody EA2 decreases malignant growth. MCF-7^EPhA2 cells were incubated in the presence of 3 μg/ml of EA2 for the time indicated prior to sample extraction and western blot analyses with an EphA2-specific antibody (D7). […]
EphA2 overexpression increased malignant growth (FIGS. 8A-8B). […] Colony formation in soft agar was performed as previously described (Zelinski et al., 2001, Cancer Res. 61:2301-6) and scored microscopically, defining clusters of at least three cells as a positive. […] Error bars represent the standard error of the mean of at least three different experiments as determined using Microsoft Excel software.
Sensitivity of MCF-7^EphA2 cells to tamoxifen was measured. […]

[1] = test system: EphA2 on transformed MDA-MB-231 cells; experiment: Flow cytometry of EA2 binding, transformed cells with or without EGTA; format: cell-based; details: 10 μg/ml EA2; 4 mM EGTA 10-15 minutes on ice
Description: (A, B) Non-transformed MCF-10A cells were labeled with EA2 at 4° C. either before (A) or after (B) treatment with EGTA and prior to fixation and immunolabeling with fluorophore-conjugated anti-mouse IgG. (C, D) Non-transformed MCF-10A (C) or transformed MDA-MB-231 (D) cells were labeled with EA2 either before (middle) or after (top) treatment with EGTA. Control cells were incubated with secondary antibody alone (bottom). The amount of EA2-EphA2 binding was measured using flow cytometry.
An equivalent experiment was performed using MCF-10A or MDA-MB-231 cells. The amount of EA2 binding to EphA2 was measured using flow cytometry (FIGS. 17C-17D). Cells were either treated by incubation in 4 mM EGTA for 10-15 minutes on ice (top panel) or were not treated with EGTA (middle panel) before incubation with 10 μg/ml EA2. Cells were then fixed with 3% formalin and labeled with fluorophore-labeled donkey anti-mouse IgG. Control cells were incubated only with secondary antibody (fluorophore-labeled donkey anti-mouse IgG) in the absence of primary antibody (EA2) (bottom panel). The samples were then evaluated using flow cytometry (Becton Dickinson FACStar Plus).

[2] = target: T1, EphA2-Ephrin A1-Fc-EA2 complex (Homo sapiens, UniProt P29317); experiment: Displacement of labeled EA2 from EphA2-Ephrin A1-Fc complex by unlabeled competitor; format: binding; details: biotinylated EA2 10 μg/ml, 30 min
T1 construct: consisting of the extracellular domain of EphA2 linked to human IgG1 constant region
Description: FIGS. 18A-18B: EphA2 EA2 epitope is distinct from Eph099B-233.152 epitope and ligand binding site. (A) EphA2-Fc was incubated with and bound to immobilized Ephrin A1-Fc. Labeled Ephrin A1-Fc (black), EA2 (white) or Eph099B-233.152 (grey) was incubated with the EphA2-Ephrin A1-Fc complex and amount of binding was measured. (B) EphA2-Fc was incubated with and bound to immobilized Ephrin A1-Fc. Labeled EA2 was then incubated with the EphA2-Ephrin A1 complex. Unlabeled competitor was incubated with EphA2-Ephrin A1-EA2 complex in the indicated amount. Competitors were Ephrin A1-Fc (black), EA2 (white) or Eph099B-233.152 (grey).
The EphA2-Ephrin A1-Fc complex was prepared as described above. Biotinylated EA2 (10 μg/ml) was then incubated with the complex for 30 min. Unlabeled competitor was incubated with EphA2-Ephrin A1-Fc-EA2 complex in the indicated amount. Unlabeled EA2 could displace the labeled EA2 at concentrations of 100 ng/ml or greater.

T1 sequence (P29317 24-537 limits assumed): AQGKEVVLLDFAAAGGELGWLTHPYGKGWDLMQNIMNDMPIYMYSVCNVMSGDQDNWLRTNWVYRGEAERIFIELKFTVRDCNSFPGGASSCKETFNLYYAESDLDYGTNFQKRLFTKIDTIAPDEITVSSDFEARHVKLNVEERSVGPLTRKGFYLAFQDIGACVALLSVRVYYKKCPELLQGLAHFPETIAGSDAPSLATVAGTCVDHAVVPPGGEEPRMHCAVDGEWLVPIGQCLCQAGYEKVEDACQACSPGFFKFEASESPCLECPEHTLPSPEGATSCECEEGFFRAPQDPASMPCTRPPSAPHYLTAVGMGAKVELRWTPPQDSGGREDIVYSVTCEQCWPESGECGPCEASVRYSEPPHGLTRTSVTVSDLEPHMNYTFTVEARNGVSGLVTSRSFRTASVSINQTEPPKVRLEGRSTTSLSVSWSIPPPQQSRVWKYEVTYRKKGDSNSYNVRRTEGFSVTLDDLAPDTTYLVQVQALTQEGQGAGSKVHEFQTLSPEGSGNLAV
T1 sequence (P20827 19-182 partner limits assumed): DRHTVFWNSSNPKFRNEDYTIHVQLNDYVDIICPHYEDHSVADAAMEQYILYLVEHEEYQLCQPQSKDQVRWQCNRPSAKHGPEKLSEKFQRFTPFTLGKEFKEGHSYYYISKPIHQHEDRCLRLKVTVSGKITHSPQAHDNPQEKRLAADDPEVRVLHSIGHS

B1: EA2: EphA2 agonistic monoclonal antibody; ATCC deposit no. PTA-4380; co-pending application Ser. No. 10/436,783; VL SEQ ID NO:33, VH SEQ ID NO:37 (antibody, listed as Homo Sapiens, V domains shown)
VH: DVKLVESGGGLVKPGGSLKLSCAASGFTFSSYTMSWVRQTPEKRLEWVATISSGGTYTYYPDSVKGRFTISRDNAKNTLYLQMSSLKSEDTAMYYCTREAIFTYWGQGTLVTVSA
VL: DIKMTQSPSSMYASLGERVTITCKASQDINNYLSWFQQKPGKSPKTLIYRANRLVDGVPSRFSGSGSGQDYSLTISSLEYEDMGIYYCLKYDEFPYTFGGGTKLEIK
MCF-7^EphA2 cells
  Sensitivity of MCF-7^EphA2 cells to tamoxifen in soft agar: increased the sensitivity of MCF-7^EphA2 cells to tamoxifen
  Inhibition / decrease of soft agar colonization, MCF-7^EphA2 cells: 19%
[1]
  Effect of EGTA treatment on EA2 binding, transformed cells: did not affect
[2]
  Concentration of unlabeled competitor displacing labeled EA2: ≥ 100 ng/mL
